{
  "source": "paper PMC9940316",
  "key": {"[1]": {"molecular_target": "rabbit polyclonal anti-BSA antibody (IgG) (rabbit) (UniProt P01870)", "sequence (P01870 whole entry, looked up)": "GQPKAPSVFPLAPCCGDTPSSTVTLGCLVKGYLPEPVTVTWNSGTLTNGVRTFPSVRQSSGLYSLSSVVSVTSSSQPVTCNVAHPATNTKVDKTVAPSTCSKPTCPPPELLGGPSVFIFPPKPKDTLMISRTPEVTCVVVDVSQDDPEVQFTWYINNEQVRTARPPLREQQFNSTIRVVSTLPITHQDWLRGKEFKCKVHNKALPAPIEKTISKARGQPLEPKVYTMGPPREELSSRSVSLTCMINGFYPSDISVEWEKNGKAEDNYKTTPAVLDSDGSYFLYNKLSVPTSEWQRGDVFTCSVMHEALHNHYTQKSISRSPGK", "experiment": "SPR; pH 4.0"}, "[2]": {"molecular_target": "rabbit polyclonal anti-BSA antibody (IgG) (rabbit) (UniProt P01870)", "experiment": "SPR; pH 7.5"}, "[3]": {"molecular_target": "rabbit polyclonal anti-BSA antibody (IgG) (rabbit) (UniProt P01870)", "experiment": "SPR; pH 4.6"}, "[4]": {"molecular_target": "human plasma IgG4 (human)", "experiment": "SPR; BIAcore 3000; human IgG subclass immobilised on CM5 chip by amine coupling (200-1000 RU); FcγRI mutants as analytes; steady-state fitting"}, "[5]": {"molecular_target": "human IgG2 (human)", "experiment": "SPR; BIAcore 3000; human IgG subclass immobilised on CM5 chip by amine coupling (200-1000 RU); FcγRI mutants as analytes; steady-state fitting"}, "[6]": {"molecular_target": "human plasma IgG3 (human)", "experiment": "SPR; BIAcore 3000; human IgG subclass immobilised on CM5 chip by amine coupling (200-1000 RU); FcγRI mutants as analytes; steady-state fitting"}, "[7]": {"molecular_target": "VRC01 D265R mutant antibody (human)", "sequence (light, as listed by the source, chain 2 of 2, other chains not shown)": "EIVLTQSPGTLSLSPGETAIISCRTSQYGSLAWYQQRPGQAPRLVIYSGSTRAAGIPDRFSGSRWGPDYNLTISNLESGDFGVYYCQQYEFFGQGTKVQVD", "experiment": "BLI; Octet R8; VRC01 or D265R mutant captured on Protein A biosensors (~5 nm); serial dilutions of FcγRI (Zymogenetics); 10mM Hepes pH7.5, 0.15M NaCl; 1:1 binding model"}, "[8]": {"molecular_target": "VRC01, human IgG1 isotype anti-gp120 antibody, wildtype (human)", "sequence (light, as listed by the source, chain 2 of 2, other chains not shown)": "as above", "experiment": "BLI; Octet R8; VRC01 or D265R mutant captured on Protein A biosensors (~5 nm); serial dilutions of FcγRI (Zymogenetics); 10mM Hepes pH7.5, 0.15M NaCl; 1:1 binding model"}, "[9]": {"molecular_target": "human plasma IgG4 (human)", "experiment": "SPR; BIAcore 3000; human IgG subclass immobilised on CM5 chip by amine coupling (200-1000 RU); wild type FcγRI as analyte; kinetic curve fitting"}, "[10]": {"molecular_target": "human IgG2 (human)", "experiment": "SPR; BIAcore 3000; human IgG subclass immobilised on CM5 chip by amine coupling (200-1000 RU); wild type FcγRI as analyte; kinetic curve fitting"}, "[11]": {"molecular_target": "human plasma IgG3 (human)", "experiment": "SPR; BIAcore 3000; human IgG subclass immobilised on CM5 chip by amine coupling (200-1000 RU); wild type FcγRI as analyte; kinetic curve fitting"}},
  "data": [
    {"substance": "BSA", "values": [
      {"measurement": "Kd", "setting": "[1]", "result": 1.8, "unit": "nM"},
      {"measurement": "Kd", "setting": "[2]", "result": 7.8, "unit": "nM"},
      {"measurement": "Kd", "setting": "[3]", "result": 10.1, "unit": "nM"}
    ]},
    {"substance": "FcγRI H174R variant (bovine FG-loop variant of human FcγRI) (from UniProt P12314 21-282) (receptor)", "values": [
      {"measurement": "Kd", "setting": "[4]", "result": 109, "unit": "nM"},
      {"measurement": "Kd", "setting": "[5]", "result": 32.8, "unit": "nM"},
      {"measurement": "Kd", "setting": "[6]", "result": 24.2, "unit": "nM"}
    ]},
    {"substance": "recombinant human FcγRI, wildtype (from UniProt P12314 21-282) (receptor)", "values": [
      {"measurement": "Kd", "setting": "[7]", "result": 1160, "unit": "nM"},
      {"measurement": "Kd", "setting": "[8]", "result": 12, "unit": "nM"},
      {"measurement": "Kd", "setting": "[9]", "result": 65.7, "unit": "nM"},
      {"measurement": "Kd", "setting": "[10]", "result": 41, "unit": "nM"},
      {"measurement": "Kd", "setting": "[11]", "result": 28.6, "unit": "nM"}
    ]}
  ]
}
